Data: patent US6518013

Biological target: viral gp41 (HIV-1 transmembrane envelope protein) of HIV-1IIIB (HIV-1IIIB) (UniProt P04578)
Test: cell-based or functional assay

Row | Substance | Cell fusion (IC90) | HIV infectivity (IC90)
1 | DP107 (synthetic peptide, residues 558 to 595 of HIV-1LAI gp41) | 1000 nM | 1000 nM
2 | DP178 (synthetic peptide, amino acids 638 to 673 of HIV-1LAI gp41) | 1 nM | 80 nM
3 | M41 (maltose binding protein fusion of the gp41 ectodomain, residues 540-686) (from UniProt P0AEX9 27-392; P03377 540-686) | > 50000 nM | > 16000 nM
4 | M41-P (M41 with an Ile to Pro mutation at position 578) (from UniProt P0AEX9 27-392; P03377 540-686) | 83 nM | 66 nM
5 | M41-PΔ178 (M41-P from which the DP-178 region has been deleted; gp41 residues 540-642 with Ile578Pro) (from UniProt P03377 540-642) | > 50000 nM | > 8000 nM
